The values that follow come from patent US20030182672A1.

Assay [1] has as its target HER-2 protein (also designated neu and erbB-2), endogenous in human MDA-MB-468 cells (human) (UniProt P04626). Briefly: FACS, fixed and permeabilized parental MDA-MB-468 cells, antibody at 1/100, Alexa Fluor 488 secondary. A general note: In flow cytometry, cells or beads pass a laser one at a time.
Assay [2] shares this target. Briefly: FACS, MDA-MB-468 cells, irrelevant IgG2b control at 1/100, Alexa Fluor 488 secondary; background.

Take “mouse Anti-erbB2 monoclonal antibody (Transduction Laboratories, Cat. No. E19420, an IgG2b isotype)”: in assay [1], the Geometric mean Fluorescence is 1090, the Mean Fluorescence worked out at 1220 and the Median Fluorescence is 1180.
“irrelevant primary antibody MART-1, an IgG2b antibody (NeoMarkers)”: in assay [2], the Geometric mean Fluorescence worked out at 122 and the Mean Fluorescence was determined as 137.
